# Data: IntAct's records for PubMed 17380128
# B1: Retinoblastoma-associated protein (Homo sapiens), P06400 (parent)
# chain: MPPKTPRKTAATAAAAAAEPPAPPPPPPPEEDPEQDSGPEDLPLVRLEFEETEEPDFTALCQKLKIPDHVRERAWLTWEKVSSVDGVLGGYIQKKKELWGICIFIAAVDLDEMSFTFTELQKNIEISVHKFFNLLKEIDTSTKVDNAMSRLLKKYDVLFALFSKLERTCELIYLTQPSSSISTEINSALVLKVSWITFLLAKGEVLQMEDDLVISFQLMLCVLDYFIKLSPPMLLKEPYKTAVIPINGSPRTPRRGQNRSARIAKQLENDTRIIEVLCKEHECNIDEVKNVYFKNFIPFMNSLGLVTSNGLPEVENLSKRYEEIYLKNKDLDARLFLDHDKTLQTDSIDSFETQRTPRKSNLDEEVNVIPPHTPVRTVMNTIQQLMMILNSASDQPSENLISYFNNCTVNPKESILKRVKDIGYIFKEKFAKAVGQGCVEIGSQRYKLGVRLYYRVMESMLKSEEERLSIQNFSKLLNDNIFHMSLLACALEVVMATYSRSTSQNLDSGTDLSFPWILNVLNLKAFDFYKVIESFIKAEGNLTREMIKHLERCEHRIMESLAWLSDSPLFDLIKQSKDREGPTDHLESACPLNLPLQNNHTAADMYLSPVRSPKKKGSTTRVNSTANAETQATSAFQTQKPLKSTSLSLFYKKVYRLAYLRLNTLCERLLSEHPELEHIIWTLFQHTLQNEYELMRDRHLDQIMMCSMYGICKVKNIDLKFKIIVTAYKDLPHAVQETFKRVLIKEEEYDSIIVFYNSVFMQRLKTNILQYASTRPPTLSPIPHIPRSPYKFPSSPLRIPGGNIYISPLKSPYKISEGLPTPTKMTPRSRILVSIGESFGTSEKFQKINQMVCNSDRVLKRSAEGSNPPKPLKKLRFDIEGSDEADGSKHLPGESKFQQKLAEMTSTRTRMQKQKMNDSMDTSNKEEK
# Variants of: B1
# Conditions: with e2f1_human E2F1, Q01094
# Chain of e2f1_human E2F1, Q01094 (Q01094 whole entry): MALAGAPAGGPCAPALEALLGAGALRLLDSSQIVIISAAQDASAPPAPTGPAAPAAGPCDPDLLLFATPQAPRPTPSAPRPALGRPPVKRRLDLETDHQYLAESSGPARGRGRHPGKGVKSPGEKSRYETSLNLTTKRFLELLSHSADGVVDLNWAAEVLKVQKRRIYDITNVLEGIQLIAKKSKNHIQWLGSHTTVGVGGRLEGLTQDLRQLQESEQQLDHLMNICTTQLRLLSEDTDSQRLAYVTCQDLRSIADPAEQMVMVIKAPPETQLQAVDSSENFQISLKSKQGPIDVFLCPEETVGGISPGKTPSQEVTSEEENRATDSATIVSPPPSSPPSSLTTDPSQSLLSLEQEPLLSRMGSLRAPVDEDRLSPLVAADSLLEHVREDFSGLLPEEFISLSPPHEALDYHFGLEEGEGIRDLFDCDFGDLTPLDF
row,effect of a mutation on the interaction,Variant
1,decreasing interaction,S612A
